Results from publication PMC2532715.

Molecular target: T1, SgrAI restriction endonuclease (UniProt Q9F6L0 1-338)
T1 sequence: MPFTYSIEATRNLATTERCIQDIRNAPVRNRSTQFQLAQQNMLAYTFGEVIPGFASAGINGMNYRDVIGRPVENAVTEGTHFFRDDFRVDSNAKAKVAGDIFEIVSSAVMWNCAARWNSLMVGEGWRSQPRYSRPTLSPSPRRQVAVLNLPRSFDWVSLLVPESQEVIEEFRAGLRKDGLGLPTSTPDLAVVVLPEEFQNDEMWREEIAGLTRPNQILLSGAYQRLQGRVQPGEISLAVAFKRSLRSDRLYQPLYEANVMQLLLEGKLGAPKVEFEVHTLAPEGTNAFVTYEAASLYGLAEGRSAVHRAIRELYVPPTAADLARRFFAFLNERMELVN
Test: X-ray crystallography

B1: Cognate 18 (dsDNA)
DNA 1: GAGTCCACCGGTGGACTC
DNA 2: GAGTCCACCGGTGGACTC
- binding result: binds
